Test results as given in paper PMC3246388 (Biomacromolecules, 2011).

Target: the molecule itself
Test: SEC + other: dynamic light scattering + other: transmission electron microscopy

B1: bacteriophage Qβ coat protein, assembled as the recombinant virus-like particle (natural protein)
chain: MAKLETVTLGNIGKDGKQTLVLNPRGVNPTNGVASLSQAGAVPALEKRVTVSVSQPSRNRKNYKVQVKIQNPTACTANGSCDPSVTRQAYADVTFSFTQYSTDEERAFVRTELAALLASPLLIDAIDQLNPAY
B1: binds.
